Data published in IntAct's records for PubMed 14871493.

The substances below were run against narb_syne7 narB (UniProt P39458).
Chain of narb_syne7 narB (P39458 whole entry): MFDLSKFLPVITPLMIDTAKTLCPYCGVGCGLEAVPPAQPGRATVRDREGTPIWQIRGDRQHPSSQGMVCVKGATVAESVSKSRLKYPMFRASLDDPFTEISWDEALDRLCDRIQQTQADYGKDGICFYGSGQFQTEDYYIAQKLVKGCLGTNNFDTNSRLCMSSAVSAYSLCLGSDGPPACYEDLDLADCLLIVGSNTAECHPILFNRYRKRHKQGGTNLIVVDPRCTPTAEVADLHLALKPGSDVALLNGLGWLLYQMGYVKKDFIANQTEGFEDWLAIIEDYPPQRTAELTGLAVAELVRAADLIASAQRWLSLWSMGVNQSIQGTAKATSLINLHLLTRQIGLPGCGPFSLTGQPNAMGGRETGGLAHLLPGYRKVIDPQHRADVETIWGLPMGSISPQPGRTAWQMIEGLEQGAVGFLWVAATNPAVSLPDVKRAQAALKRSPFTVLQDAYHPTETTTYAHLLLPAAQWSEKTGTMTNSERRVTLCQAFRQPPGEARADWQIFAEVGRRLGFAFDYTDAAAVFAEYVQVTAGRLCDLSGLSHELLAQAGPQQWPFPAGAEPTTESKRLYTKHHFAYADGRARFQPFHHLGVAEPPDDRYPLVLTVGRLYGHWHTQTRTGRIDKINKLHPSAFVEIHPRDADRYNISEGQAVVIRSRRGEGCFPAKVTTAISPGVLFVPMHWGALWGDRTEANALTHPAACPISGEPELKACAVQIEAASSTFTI

Chain of Ferredoxin-1 (Anabaena sp. (strain PCC 7119)), P0A3C8 E95K;E96K (P0A3C8 whole entry E95K/E96K): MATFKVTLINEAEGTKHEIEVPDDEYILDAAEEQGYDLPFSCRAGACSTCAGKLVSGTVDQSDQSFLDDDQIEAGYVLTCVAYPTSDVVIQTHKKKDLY
Chain of Ferredoxin-1 (Anabaena sp. (strain PCC 7119)), P0A3C8 E95K (P0A3C8 whole entry E95K): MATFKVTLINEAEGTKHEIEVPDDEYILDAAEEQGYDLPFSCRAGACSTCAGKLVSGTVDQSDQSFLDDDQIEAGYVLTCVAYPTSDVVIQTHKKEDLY
Chain of Ferredoxin-1 (Anabaena sp. (strain PCC 7119)), P0A3C8 E96K (P0A3C8 whole entry E96K): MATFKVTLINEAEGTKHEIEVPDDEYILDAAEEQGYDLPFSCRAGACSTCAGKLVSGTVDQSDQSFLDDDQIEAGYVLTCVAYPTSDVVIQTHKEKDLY

| Substance | effect of a mutation on the interaction |
| --- | --- |
| Ferredoxin-1 (Anabaena sp. (strain PCC 7119)), P0A3C8 E95K;E96K | decreasing interaction |
| Ferredoxin-1 (Anabaena sp. (strain PCC 7119)), P0A3C8 E95K | decreasing interaction |
| Ferredoxin-1 (Anabaena sp. (strain PCC 7119)), P0A3C8 E96K | decreasing interaction |
